Legend:
[1] = target: talin purified from chicken gizzard (chicken) (UniProt P54939); test: radioligand binding
[2] = target: 190-kD proteolytic fragment of talin (chicken) (UniProt P54939); test: radioligand binding

Kd, high affinity interaction [1]: 30 nM
Kd, higher affinity of two [1]: 10 nM
Kd, lower affinity interaction [1]: 550 nM
Kd, lower affinity of two [1]: 240 nM
N (Bmax), high affinity interaction (mol of vinculin bound per mol of talin) [1]: 0.15
N (Bmax), lower affinity interaction (mol of vinculin bound per mol of talin) [1]: 3
Kd, higher affinity of two [2]: 16 nM
Kd, lower affinity of two [2]: 220 nM
Substance: vinculin purified from chicken gizzard (natural protein)

From PMC2119638
